Reference: PMC11375168 (Nature Communications, 2024)

Target: the molecule itself
Experiment: cryo-EM structure

B1: Mycobacterium tuberculosis EfpA (MtEfpA), full length, with C-terminal GFP and Strep-Tag II (natural protein)
chain: MTALNDTERAVRNWTAGRPHRPAPMRPPRSEETASERPSRYYPTWLPSRSFIAAVIAIGGMQLLATMDSTVAIVALPKIQNELSLSDAGRSWVITAYVLTFGGLMLLGGRLGDTIGRKRTFIVGVALFTISSVLCAVAWDEATLVIARLSQGVGSAIASPTGLALVATTFPKGPARNAATAVFAAMTAIGSVMGLVVGGALTEVSWRWAFLVNVPIGLVMIYLARTALRETNKERMKLDATGAILATLACTAAVFAFSIGPEKGWMSGITIGSGLVALAAAVAFVIVERTAENPVVPFHLFRDRNRLVTFSAILLAGGVMFSLTVCIGLYVQDILGYSALRAGVGFIPFVIAMGIGLGVSSQLVSRFSPRVLTIGGGYLLFGAMLYGSFFMHRGVPYFPNLVMPIVVGGIGIGMAVVPLTLSAIAGVGFDQIGPVSAIALMLQSLGGPLVLAVIQAVITSRTLYLGGTTGPVKFMNDVQLAALDHAYTYGLLWVAGAAIIVGGMALFIGYTPQQVAHAQEVKEAIDAGEL
Which “stoichiometry N” value does the source give for B1 here?
Its value is 2.
